Literature values, collected in US12077586B2, “Bispecific antibodies for use in the treatment of hematological malignancies” (LAVA THERAPEUTICS N.V., priority 2018, dated 2024).
Where a chain is given by its changes, count along the chain named.

B1: 6H1: Vγ9Vδ2-TCR binding VHH, SEQ ID NO: 140 (protein)
VHH: EVQLVESGGGLVQAGGSLRLSCAATGRTFSEYAMGWFRQAPGKEREFAAAISWTGSKTYYADSVKGRFTISRDNAKNTVYLQMNSLKPEDTAVYYCAASSDCSGPGCHTEEYDYWGQGTQVTVSS
modifications: antibody sequence
B2: 5E3: Vγ9Vδ2-TCR binding VHH, SEQ ID NO: 139 (protein)
VHH: EVQLVESGGGLVQAGGSLRLSCTASGRTFSSYAMGWFRQAPGKEREFVAAISWSGGTTYYADSVKGRFTISRDNAKNTVSLQMNSLKPEDTAVYFCAASLDCSGPGCHTAEYDYWGQGTQVTVSS
modifications: antibody sequence
B3: 6C4: Vγ9Vδ2-TCR binding VHH, SEQ ID NO: 156 (protein)
VHH: EVQLVESGGGLVQAGGSLRLSCAVSVRTFSDYRMGWFRQAPGKEREFVSTISWSGGLTYYADSVKGRFTISRDNSKNTLYLQMNSLKPEDTAVYYCAAGGGYAGGTYYHPEEWGQGTQVTVSS
modifications: antibody sequence
B4: 5C7: Vγ9Vδ2-TCR binding VHH, SEQ ID NO: 153 (protein)
VHH: EVQLVESGGGLVQAGDSLRLSCAASGRTFSRYTMGWFRQAPGKEREFVAAISWSGGRTNFAGSVKGRFTISRDNAKNTVYLQMNSLKPEDTAVYYCAADWLPVPGRESYDYWGQGTQVTVSS
modifications: antibody sequence
B5: 5B11: Vγ9Vδ2-TCR binding VHH, SEQ ID NO: 155 (protein)
VHH: EVQLVESGGGLVQAGGSLRLSCAASGRTSSTFSMAWFRQAPRKEREFVAAINWSGGSTRYADSVSDRFAISRDNAKNTVYLQMNNLKPEDTAVYYCAARRGGIYYSTQNDYDYWGQGTQVTVSS
modifications: antibody sequence
B6: 6A1: Vγ9Vδ2-TCR binding VHH, SEQ ID NO: 151 (protein)
VHH: EVQLVESGGGLVQAGGSLRLSCAASGRTFSNYAMGWFRQAPGKEREFVATISWSGGSTYYADSVKGRFTISRDNAKNTVYLQMNSLKPEDTAVYYCAAAFSGSDYANTKKEVEYDYWGQGTQVTVSS
modifications: antibody sequence
B7: 6E4: Vγ9Vδ2-TCR binding VHH, SEQ ID NO: 152 (protein)
VHH: EVQLVESGGGLVQAGGSLRLSCAASGFTFDDYCIAWFRQAPGKEREPVSCITTSDGSTYYADSVKGRFTISSDNAKNTVYLQMNRLKPEDTAVYYCAAYFGYGCYGGAQDYRAMDYWGKGTLVTVSS
modifications: antibody sequence
B8: 5C1: Vγ9Vδ2-TCR binding VHH, SEQ ID NO: 142 (protein)
VHH: EVQLVESGGGLVQPGGSLRLSCAASGSIFSNYAMAWFRQAPEKERDFLAAVSWSGGRTYYADSVKGRFTISRDNAKNTVNLQMNSLKPEDTAVYYCAASLSCSGPGCSLEEYDYWGQGTQVTVSS
modifications: antibody sequence
B9: 6E3: Vγ9Vδ2-TCR binding VHH, SEQ ID NO: 144 (protein)
VHH: EVQLVESGGGLVQAGGSLRLSCAASGRPFSNYGMGWFRQAPGKKREFVAGISWSGGSTDYADSVKGRLTISRDNAKNTVYLQMNSLKPEDTAVYYCAAVFSGAETAYYPSDDYDYWGQGTQVTVSS
modifications: antibody sequence
B10: 6C1: Vγ9Vδ2-TCR binding VHH, SEQ ID NO: 146 (protein)
VHH: B9 VHH with F47S, L68F
modifications: antibody sequence
B11: 6G3: Vγ9Vδ2-TCR binding VHH, SEQ ID NO: 148 (protein)
VHH: B9 VHH with S30N, K44E, D59Y, L68F, Y107Q, D111Y
modifications: antibody sequence
B12: 6H3: Vγ9Vδ2-TCR binding VHH, SEQ ID NO: 147 (protein)
VHH: B9 VHH with A24V, K44E, S52T, D59H, S63L, L68F, Y80H, D111T, D112E
modifications: antibody sequence
B13: 5F5: Vγ9Vδ2-TCR binding VHH, SEQ ID NO: 150 (protein)
VHH: EVQLVESGGGLVQAGGSLRLSCAASGRTFSNYAMGWFRQAPGKEREFVAAISWSGGSTYYADSVKGRFTISRDNAKNTVYLQMNSLKPEDTAVYYCAAMFSGSESQLVVVITNLYEYDYWGQGTQVTVSS
modifications: antibody sequence
B14: 5G3: Vγ9Vδ2-TCR binding VHH, SEQ ID NO: 141 (protein)
VHH: EVQLVESGGGLVQAGGSLRLSCAASGRTFSSYAMGWFRQAPGKEREFVAAVSWSGGSTYYADSVKGRFTISRDNARNTVYLQMNSLNPEDTAVYYCAASQDCSGPGCYTNEYDSWGQGTQVTVSS
modifications: antibody sequence
B15: 5D7: Vγ9Vδ2-TCR binding VHH, SEQ ID NO: 154 (protein)
VHH: EVQLVESGGGLVQAGGSLRLSCIASGRTFSNYAMGWFRQAPGKEREFVAAISWSGGMTDHADSVKGRFTISRDNAKNTVYLQMNSLKPEDTAVYYCAAAFAGDIPYGSSWYGDPTTYDYWGQGTQVTVSS
modifications: antibody sequence

Legend:
complete Vγ9Vδ2 TCR = target: T1, complete Vγ9Vδ2 TCR (Homo sapiens, UniProt A0JD36+Q99603, T7A); details: Mean Fluorescence Index class; cited from earlier work
T1 construct: host or cells: γδ T-cells expressing the complete Vγ9Vδ2 TCR

Vγ9 chain = target: T2, Vγ9 chain (Homo sapiens, UniProt Q99603, T7A); details: Mean Fluorescence Index class; γδ T-cells expressing Vγ9 chain paired with non Vδ2 chain; cited from earlier work
T2 construct: host or cells: γδ T-cells expressing a Vγ9 chain paired with a non-Vδ2 chain

Vδ2 chain = target: T3, Vδ2 chain (Homo sapiens, UniProt A0JD36); details: Mean Fluorescence Index class; γδ T-cells expressing Vδ2 chain paired with non Vγ9 chain; cited from earlier work
T3 construct: host or cells: γδ T-cells expressing a Vδ2 chain paired with a non-Vγ9 chain

[1] = tested on: γδ T-cells not expressing any of the Vγ9Vδ2 TCR chains; details: Mean Fluorescence Index class; cells not expressing any Vγ9Vδ2 TCR chain; cited from earlier work

T2 sequence (Q99603 with tags, fused parts or gaps T7A limits assumed): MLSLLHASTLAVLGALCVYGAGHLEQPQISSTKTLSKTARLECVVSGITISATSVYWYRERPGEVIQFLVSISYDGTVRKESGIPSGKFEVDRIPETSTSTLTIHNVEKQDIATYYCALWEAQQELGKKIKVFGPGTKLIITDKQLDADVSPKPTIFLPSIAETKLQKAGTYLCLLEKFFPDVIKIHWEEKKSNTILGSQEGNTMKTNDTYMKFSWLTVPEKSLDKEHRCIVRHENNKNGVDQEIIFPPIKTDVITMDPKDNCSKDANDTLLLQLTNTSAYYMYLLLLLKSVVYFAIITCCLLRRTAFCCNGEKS
T2 sequence (P07766 23-207 partner): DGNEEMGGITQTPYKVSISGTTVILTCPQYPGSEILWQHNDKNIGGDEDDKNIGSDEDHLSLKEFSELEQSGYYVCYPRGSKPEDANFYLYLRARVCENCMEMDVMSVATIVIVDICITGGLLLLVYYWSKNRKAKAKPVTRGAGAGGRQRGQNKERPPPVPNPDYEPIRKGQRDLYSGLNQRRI
T2 sequence (P09693 23-182 partner): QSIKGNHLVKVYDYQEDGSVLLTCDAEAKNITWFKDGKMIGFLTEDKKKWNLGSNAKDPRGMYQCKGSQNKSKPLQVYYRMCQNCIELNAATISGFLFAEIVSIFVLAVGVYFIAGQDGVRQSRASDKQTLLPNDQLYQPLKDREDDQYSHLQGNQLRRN
T2 sequence (P04234 22-171 partner): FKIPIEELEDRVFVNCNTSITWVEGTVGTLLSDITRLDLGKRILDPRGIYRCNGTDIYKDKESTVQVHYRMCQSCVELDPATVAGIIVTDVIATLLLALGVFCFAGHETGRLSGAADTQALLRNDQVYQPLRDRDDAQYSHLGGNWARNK
T2 sequence (P20963 22-164 partner): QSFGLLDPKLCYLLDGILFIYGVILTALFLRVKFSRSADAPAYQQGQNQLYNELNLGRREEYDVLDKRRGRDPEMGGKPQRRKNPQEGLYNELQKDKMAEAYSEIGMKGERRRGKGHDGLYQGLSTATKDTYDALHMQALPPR
T1 sequence (Q99603 with tags, fused parts or gaps T7A limits assumed): as the sequence (Q99603 with tags, fused parts or gaps T7A limits assumed) above
T1 sequence (A0JD36 with tags, fused parts or gaps, stated change not applied): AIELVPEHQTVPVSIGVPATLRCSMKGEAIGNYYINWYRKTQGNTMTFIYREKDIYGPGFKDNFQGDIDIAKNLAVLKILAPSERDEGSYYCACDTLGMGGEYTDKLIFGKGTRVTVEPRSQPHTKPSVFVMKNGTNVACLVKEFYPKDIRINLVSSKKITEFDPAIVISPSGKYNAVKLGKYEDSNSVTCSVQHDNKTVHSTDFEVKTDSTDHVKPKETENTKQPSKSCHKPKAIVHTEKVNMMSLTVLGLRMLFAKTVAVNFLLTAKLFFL
T1 sequence (P07766 23-207 partner): as the sequence (P07766 23-207 partner) above
T1 sequence (P09693 23-182 partner): as the sequence (P09693 23-182 partner) above
T1 sequence (P04234 22-171 partner): as the sequence (P04234 22-171 partner) above
T1 sequence (P20963 22-164 partner): as the sequence (P20963 22-164 partner) above
T3 sequence (A0JD36 with tags, fused parts or gaps): as the sequence (A0JD36 with tags, fused parts or gaps, stated change not applied) above
T3 sequence (P07766 23-207 partner): as the sequence (P07766 23-207 partner) above
T3 sequence (P09693 23-182 partner): as the sequence (P09693 23-182 partner) above
T3 sequence (P04234 22-171 partner): as the sequence (P04234 22-171 partner) above
T3 sequence (P20963 22-164 partner): as the sequence (P20963 22-164 partner) above

Molecule	Binding, Vγ9Vδ2+ (complete Vγ9Vδ2 TCR)	Binding, Vγ9+ (Vγ9 chain)	Binding, Vδ2+ (Vδ2 chain)	Binding, Vγ9Vδ2− [1]
B1	++ (“++” indicates an MFI above 20)	++ (“++” indicates an MFI above 20)	− (“−” indicates a Mean Fluorescence Index (MFI) below 1.5)	− (“−” indicates a Mean Fluorescence Index (MFI) below 1.5)
B2	++ (“++” indicates an MFI above 20)	++ (“++” indicates an MFI above 20)	− (“−” indicates a Mean Fluorescence Index (MFI) below 1.5)	− (“−” indicates a Mean Fluorescence Index (MFI) below 1.5)
B3	++ (“++” indicates an MFI above 20)	++ (“++” indicates an MFI above 20)	+/− (“+/−” indicates an MFI of between 1.5 and 4.5)	− (“−” indicates a Mean Fluorescence Index (MFI) below 1.5)
B4	+/− (“+/−” indicates an MFI of between 1.5 and 4.5)	− (“−” indicates a Mean Fluorescence Index (MFI) below 1.5)	+/− (“+/−” indicates an MFI of between 1.5 and 4.5)	− (“−” indicates a Mean Fluorescence Index (MFI) below 1.5)
B5	+ (“+” indicates an MFI of between 4.6 and 20)	− (“−” indicates a Mean Fluorescence Index (MFI) below 1.5)	− (“−” indicates a Mean Fluorescence Index (MFI) below 1.5)	− (“−” indicates a Mean Fluorescence Index (MFI) below 1.5)
B6	++ (“++” indicates an MFI above 20)	− (“−” indicates a Mean Fluorescence Index (MFI) below 1.5)	++ (“++” indicates an MFI above 20)	− (“−” indicates a Mean Fluorescence Index (MFI) below 1.5)
B7	++ (“++” indicates an MFI above 20)	− (“−” indicates a Mean Fluorescence Index (MFI) below 1.5)	++ (“++” indicates an MFI above 20)	− (“−” indicates a Mean Fluorescence Index (MFI) below 1.5)
B8	++ (“++” indicates an MFI above 20)	++ (“++” indicates an MFI above 20)	+/− (“+/−” indicates an MFI of between 1.5 and 4.5)	− (“−” indicates a Mean Fluorescence Index (MFI) below 1.5)
B9	++ (“++” indicates an MFI above 20)	− (“−” indicates a Mean Fluorescence Index (MFI) below 1.5)	++ (“++” indicates an MFI above 20)	− (“−” indicates a Mean Fluorescence Index (MFI) below 1.5)
B10	++ (“++” indicates an MFI above 20)	− (“−” indicates a Mean Fluorescence Index (MFI) below 1.5)	++ (“++” indicates an MFI above 20)	− (“−” indicates a Mean Fluorescence Index (MFI) below 1.5)
B11	++ (“++” indicates an MFI above 20)	− (“−” indicates a Mean Fluorescence Index (MFI) below 1.5)	++ (“++” indicates an MFI above 20)	− (“−” indicates a Mean Fluorescence Index (MFI) below 1.5)
B12	++ (“++” indicates an MFI above 20)	+/− (“+/−” indicates an MFI of between 1.5 and 4.5)	++ (“++” indicates an MFI above 20)	− (“−” indicates a Mean Fluorescence Index (MFI) below 1.5)
B13	++ (“++” indicates an MFI above 20)	− (“−” indicates a Mean Fluorescence Index (MFI) below 1.5)	++ (“++” indicates an MFI above 20)	− (“−” indicates a Mean Fluorescence Index (MFI) below 1.5)
B14	++ (“++” indicates an MFI above 20)	++ (“++” indicates an MFI above 20)	− (“−” indicates a Mean Fluorescence Index (MFI) below 1.5)	− (“−” indicates a Mean Fluorescence Index (MFI) below 1.5)
B15	++ (“++” indicates an MFI above 20)	− (“−” indicates a Mean Fluorescence Index (MFI) below 1.5)	++ (“++” indicates an MFI above 20)	− (“−” indicates a Mean Fluorescence Index (MFI) below 1.5)
